Target: T1, human DLL-4 expressed on the surface of CHO-K1 cells (CHO-DLL-4 cells) (human, UniProt Q9NR61 27-685)
T1 construct: whole, on cells; also called cell surface expressed DLL-4; cellular human DLL-4
Experiment: flow cytometry (HTFC) on CHO-K1 cells stably expressing DLL-4
Description: Cells stably expressing DLL-4 were incubated with 1 μg/ml of anti-DLL-4 antibodies as indicated. The binding was analyzed by flow cytometry (HTFC, Intellicyt).
This example illustrates in vitro data for cell binding as part of an initial screen for several disclosed antibodies. CHO-K1 cells stably expressing DLL-4 (CHO-DLL-4 cells) were lifted in enzyme-free Dissociation Buffer and transferred to V-Bottom 96 well-plates (100,000 cells/well). Cells were incubated with anti-DLL-4 Antibodies in FACS buffer (PBS+2% FBS)+NaN₃ on ice for 45 min. After 2 washes in FACS buffer, a 1:1000 dilution of Phycoerythrin conjugated anti-Human IgG (γ-chain specific) was added and incubated for 30 min. Following a final wash, fluorescence intensity was measured on an Intellicyt High Throughput Flow Cytometer (HTFC). Data were analyzed using Graphpad Prism software using non-linear regression fit. Data points are shown as the median fluorescence intensity (MFI) of positively labeled cells +/− Standard Error. EC₅₀ values are reported as the concentration of antibody to achieve 50% of maximal DLL-4 antibodies binding to DLL-4 expressing cells.

Binder | binding result
anti-DLL-4 antibody C3 (antibody, V domains shown, it was detected with anti-human IgG (gamma-chain specific)) VH: QVQLVQSGSELKKPGASVKVSCKASGYTFTSYYMHWVRQVPGQGLEWMGIINPSGGSTSYAQKFQGRVTMTRDTSTSTVYMELSSLRSEDTAVYYCATDYYDSSGYVDFDYWGQGTLVTVSS VL: not shown | binds
anti-DLL-4 antibody G6 (antibody, V domains shown, Fully human antibody of an IgG class) VH: EVQLVESGGSLVQPGGSLRLSCAASGFTFSNGWMTWLRQAPGKGLEWVATIKPDGSDTAYVESVKGRFTISRDNAKNLLYLQMDSLRGDDTAVYFCARDLAYNAFDIWGQGTMVTVSS VL: not shown | binds
